Starred links: 1 amine or outer side, 2 acyl side, 3 side chain; linkers in the order of their positions; H or OH if unused. Non-standard residues stand in square brackets, D forms with d. *: point of attachment. AC4Abu = α-carboxy-4-aminobutyric acid, O=C(C(CCN[*:1])C(=O)[*:3])[*:2]; Oic = O=C(O)[C@@H]1C[C@@H]2CCCC[C@@H]2N1; Phe(4-Cl) = N[C@@H](Cc1ccc(Cl)cc1)C(=O)O; γGlu = O=C(O)[C@H](CCC(=O)[*:2])N[*:1]; 1Nal = N[C@@H](Cc1cccc2ccccc12)C(=O)O; 2Nal = N[C@@H](Cc1ccc2ccccc2c1)C(=O)O; NMeR = CN[C@@H](CCCNC(=N)N)C(=O)O; Tridecanoyl = CCCCCCCCCCCCC(=O)*; Cha = N[C@@H](CC1CCCCC1)C(=O)O; Gly(N-CH2CH2OH) = O=C(O)CNCCO; Tle = CC(C)(C)[C@H](N)C(=O)O; Nle = CCCC[C@H](N)C(=O)O; AEEA = NCCOCCOCC(=O)O; Aib = CC(C)(N)C(=O)O; βAla = NCCC(=O)O
T1: human APJ receptor (human, UniProt P35414 1-380)
T1 sequence (looked up): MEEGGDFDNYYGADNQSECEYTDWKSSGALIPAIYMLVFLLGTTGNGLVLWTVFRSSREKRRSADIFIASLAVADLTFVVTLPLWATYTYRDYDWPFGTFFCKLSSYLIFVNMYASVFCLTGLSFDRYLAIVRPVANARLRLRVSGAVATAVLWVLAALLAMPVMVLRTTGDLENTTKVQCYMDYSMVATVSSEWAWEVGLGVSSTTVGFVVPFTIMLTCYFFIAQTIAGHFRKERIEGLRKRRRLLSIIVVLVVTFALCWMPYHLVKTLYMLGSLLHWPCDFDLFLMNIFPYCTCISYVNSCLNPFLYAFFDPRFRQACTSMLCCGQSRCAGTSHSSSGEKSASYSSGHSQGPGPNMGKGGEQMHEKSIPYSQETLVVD

T2: rat APJ receptor (rat, UniProt Q9JHG3 1-377)
T2 sequence (looked up): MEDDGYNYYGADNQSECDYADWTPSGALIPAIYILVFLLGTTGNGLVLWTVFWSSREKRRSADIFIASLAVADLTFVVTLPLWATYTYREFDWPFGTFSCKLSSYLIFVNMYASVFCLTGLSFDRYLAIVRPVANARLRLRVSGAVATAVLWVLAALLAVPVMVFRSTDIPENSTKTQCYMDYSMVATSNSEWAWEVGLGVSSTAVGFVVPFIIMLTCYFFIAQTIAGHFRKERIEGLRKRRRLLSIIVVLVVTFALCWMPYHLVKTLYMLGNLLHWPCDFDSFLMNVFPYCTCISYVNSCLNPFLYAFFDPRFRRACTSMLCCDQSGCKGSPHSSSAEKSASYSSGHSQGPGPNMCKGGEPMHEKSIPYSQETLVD


Tests used:
human APJ receptor = molecular target: T1, human APJ receptor; experiment: cell-based or functional assay
rat APJ receptor = molecular target: T2, rat APJ receptor; experiment: cell-based or functional assay

Row | EC50 Human APJ Receptor (GTPγS assay) (human APJ receptor) [pM] | EC50 Rat APJ Receptor (GTPγS assay) (rat APJ receptor) [pM] | Binder
1 | 108 | 230 | Tridecanoyl-[γGlu][AEEA][AEEA]QRP[NMeR]LSHKG[Oic][Nle]P[Phe(4-Cl)]-OH (SMILES CCCCCCCCCCCCC(=O)N[C@@H](CCC(=O)NCCOCCOCC(=O)NCCOCCOCC(=O)N[C@@H](CCC(N)=O)C(=O)N[C@@H](CCCNC(=N)N)C(=O)N1CCC[C@H]1C(=O)N(C)[C@@H](CCCNC(=N)N)C(=O)N[C@@H](CC(C)C)C(=O)N[C@@H](CO)C(=O)N[C@@H](Cc1c[nH]cn1)C(=O)N[C@@H](CCCCN)C(=O)NCC(=O)N1[C@H](C(=O)N[C@@H](CCCC)C(=O)N2CCC[C@H]2C(=O)N[C@@H](Cc2ccc(Cl)cc2)C(=O)O)C[C@@H]2CCCC[C@@H]21)C(=O)O) [Apelin polypeptide SEQ ID NO: 352]
2 | 54.2 | 377 | Tridecanoyl-[γGlu][AEEA][AEEA]QRP[NMeR]L[βAla]HKGP[Nle]P[Phe(4-Cl)]-OH (SMILES CCCCCCCCCCCCC(=O)N[C@@H](CCC(=O)NCCOCCOCC(=O)NCCOCCOCC(=O)N[C@@H](CCC(N)=O)C(=O)N[C@@H](CCCNC(=N)N)C(=O)N1CCC[C@H]1C(=O)N(C)[C@@H](CCCNC(=N)N)C(=O)N[C@@H](CC(C)C)C(=O)NCCC(=O)N[C@@H](Cc1c[nH]cn1)C(=O)N[C@@H](CCCCN)C(=O)NCC(=O)N1CCC[C@H]1C(=O)N[C@@H](CCCC)C(=O)N1CCC[C@H]1C(=O)N[C@@H](Cc1ccc(Cl)cc1)C(=O)O)C(=O)O) [Apelin polypeptide SEQ ID NO: 464]
3 | 134 | 306 | Tridecanoyl-[γGlu][AEEA][AEEA]QRP[NMeR]LSHHGP[Nle]P[Phe(4-Cl)]-OH (SMILES CCCCCCCCCCCCC(=O)N[C@@H](CCC(=O)NCCOCCOCC(=O)NCCOCCOCC(=O)N[C@@H](CCC(N)=O)C(=O)N[C@@H](CCCNC(=N)N)C(=O)N1CCC[C@H]1C(=O)N(C)[C@@H](CCCNC(=N)N)C(=O)N[C@@H](CC(C)C)C(=O)N[C@@H](CO)C(=O)N[C@@H](Cc1c[nH]cn1)C(=O)N[C@@H](Cc1c[nH]cn1)C(=O)NCC(=O)N1CCC[C@H]1C(=O)N[C@@H](CCCC)C(=O)N1CCC[C@H]1C(=O)N[C@@H](Cc1ccc(Cl)cc1)C(=O)O)C(=O)O) [Apelin polypeptide SEQ ID NO: 448]
4 | 100 | 246 | Tridecanoyl-[AC4Abu][AEEA][AEEA]QRP[NMeR]LSHKGP[Nle][Phe(4-Cl)]-OH (SMILES CCCCCCCCCCCCC(=O)NCCC(C(=O)O)C(=O)NCCOCCOCC(=O)NCCOCCOCC(=O)N[C@@H](CCC(N)=O)C(=O)N[C@@H](CCCNC(=N)N)C(=O)N1CCC[C@H]1C(=O)N(C)[C@@H](CCCNC(=N)N)C(=O)N[C@@H](CC(C)C)C(=O)N[C@@H](CO)C(=O)N[C@@H](Cc1c[nH]cn1)C(=O)N[C@@H](CCCCN)C(=O)NCC(=O)N1CCC[C@H]1C(=O)N[C@@H](CCCC)C(=O)N[C@@H](Cc1ccc(Cl)cc1)C(=O)O) [Apelin polypeptide SEQ ID NO: 402]
5 | 81.6 | 352 | XXXQRPRLSHKGPXPF ({TDA}[AC4Abu][Aeea][Aeea]QRP[NMeArg]LSHKGP[Nle][aMePro][4-Cl-F]{COOH}) [Apelin polypeptide SEQ ID NO: 401]
6 | 132 | 313 | XXXQRPRLXHKGPXPF ({TDA}[AC4Abu][Aeea][Aeea]QRP[NMeArg]L[Pra]HKGP[Nle]P[4-Cl-F]{COOH}) [Apelin polypeptide SEQ ID NO: 450]
7 | 645 | 1180 | Tridecanoyl-[AC4Abu][AEEA][AEEA]QRP[NMeR]LS[βAla]KGP[Nle]P[Phe(4-Cl)]-OH (SMILES CCCCCCCCCCCCC(=O)NCCC(C(=O)O)C(=O)NCCOCCOCC(=O)NCCOCCOCC(=O)N[C@@H](CCC(N)=O)C(=O)N[C@@H](CCCNC(=N)N)C(=O)N1CCC[C@H]1C(=O)N(C)[C@@H](CCCNC(=N)N)C(=O)N[C@@H](CC(C)C)C(=O)N[C@@H](CO)C(=O)NCCC(=O)N[C@@H](CCCCN)C(=O)NCC(=O)N1CCC[C@H]1C(=O)N[C@@H](CCCC)C(=O)N1CCC[C@H]1C(=O)N[C@@H](Cc1ccc(Cl)cc1)C(=O)O) [Apelin polypeptide SEQ ID NO: 423]

More lines, now with the values behind:

Row | Binder | EC50 Human APJ Receptor (GTPγS assay) (human APJ receptor) [pM] | EC50 Rat APJ Receptor (GTPγS assay) (rat APJ receptor) [pM]
8 | Tridecanoyl-[γGlu][AEEA][AEEA]QRP[NMeR][Tle]SHKG[Oic][Nle]P[Phe(4-Cl)]-OH (SMILES CCCCCCCCCCCCC(=O)N[C@@H](CCC(=O)NCCOCCOCC(=O)NCCOCCOCC(=O)N[C@@H](CCC(N)=O)C(=O)N[C@@H](CCCNC(=N)N)C(=O)N1CCC[C@H]1C(=O)N(C)[C@@H](CCCNC(=N)N)C(=O)N[C@H](C(=O)N[C@@H](CO)C(=O)N[C@@H](Cc1c[nH]cn1)C(=O)N[C@@H](CCCCN)C(=O)NCC(=O)N1[C@H](C(=O)N[C@@H](CCCC)C(=O)N2CCC[C@H]2C(=O)N[C@@H](Cc2ccc(Cl)cc2)C(=O)O)C[C@@H]2CCCC[C@@H]21)C(C)(C)C)C(=O)O) [Apelin polypeptide SEQ ID NO: 439] | 2150 | 3200
9 | Tridecanoyl-[γGlu][AEEA][AEEA]QRP[NMeR]L[Gly(N-CH2CH2OH)]HKGP[Nle]P[Phe(4-Cl)]-OH (SMILES CCCCCCCCCCCCC(=O)N[C@@H](CCC(=O)NCCOCCOCC(=O)NCCOCCOCC(=O)N[C@@H](CCC(N)=O)C(=O)N[C@@H](CCCNC(=N)N)C(=O)N1CCC[C@H]1C(=O)N(C)[C@@H](CCCNC(=N)N)C(=O)N[C@@H](CC(C)C)C(=O)N(CCO)CC(=O)N[C@@H](Cc1c[nH]cn1)C(=O)N[C@@H](CCCCN)C(=O)NCC(=O)N1CCC[C@H]1C(=O)N[C@@H](CCCC)C(=O)N1CCC[C@H]1C(=O)N[C@@H](Cc1ccc(Cl)cc1)C(=O)O)C(=O)O) [Apelin polypeptide SEQ ID NO: 467] | 129 | 520
10 | Tridecanoyl-[γGlu][AEEA][AEEA]QRP[NMeR]LSH[βAla]GP[Nle]P[Phe(4-Cl)]-OH (SMILES CCCCCCCCCCCCC(=O)N[C@@H](CCC(=O)NCCOCCOCC(=O)NCCOCCOCC(=O)N[C@@H](CCC(N)=O)C(=O)N[C@@H](CCCNC(=N)N)C(=O)N1CCC[C@H]1C(=O)N(C)[C@@H](CCCNC(=N)N)C(=O)N[C@@H](CC(C)C)C(=O)N[C@@H](CO)C(=O)N[C@@H](Cc1c[nH]cn1)C(=O)NCCC(=O)NCC(=O)N1CCC[C@H]1C(=O)N[C@@H](CCCC)C(=O)N1CCC[C@H]1C(=O)N[C@@H](Cc1ccc(Cl)cc1)C(=O)O)C(=O)O) [Apelin polypeptide SEQ ID NO: 424] | 4140 | 17200
11 | Tridecanoyl-[AC4Abu][AEEA][AEEA]QRP[NMeR]LSHKGP[Nle][2Nal]-OH (SMILES CCCCCCCCCCCCC(=O)NCCC(C(=O)O)C(=O)NCCOCCOCC(=O)NCCOCCOCC(=O)N[C@@H](CCC(N)=O)C(=O)N[C@@H](CCCNC(=N)N)C(=O)N1CCC[C@H]1C(=O)N(C)[C@@H](CCCNC(=N)N)C(=O)N[C@@H](CC(C)C)C(=O)N[C@@H](CO)C(=O)N[C@@H](Cc1c[nH]cn1)C(=O)N[C@@H](CCCCN)C(=O)NCC(=O)N1CCC[C@H]1C(=O)N[C@@H](CCCC)C(=O)N[C@@H](Cc1ccc2ccccc2c1)C(=O)O) [Apelin polypeptide SEQ ID NO: 403] | 2630 | 8100
12 | Tridecanoyl-[γGlu][AEEA][AEEA][dQ]RP[NMeR][Cha]SYKG[Oic][Nle][Aib][Phe(4-Cl)]-OH (SMILES CCCCCCCCCCCCC(=O)N[C@@H](CCC(=O)NCCOCCOCC(=O)NCCOCCOCC(=O)N[C@H](CCC(N)=O)C(=O)N[C@@H](CCCNC(=N)N)C(=O)N1CCC[C@H]1C(=O)N(C)[C@@H](CCCNC(=N)N)C(=O)N[C@@H](CC1CCCCC1)C(=O)N[C@@H](CO)C(=O)N[C@@H](Cc1ccc(O)cc1)C(=O)N[C@@H](CCCCN)C(=O)NCC(=O)N1[C@H](C(=O)N[C@@H](CCCC)C(=O)NC(C)(C)C(=O)N[C@@H](Cc2ccc(Cl)cc2)C(=O)O)C[C@@H]2CCCC[C@@H]21)C(=O)O) [Apelin polypeptide SEQ ID NO: 531] | 852 | 5660
13 | Tridecanoyl-[γGlu][AEEA][AEEA]QRP[NMeR]LSH[1Nal]GP[Nle]P[Phe(4-Cl)]-OH (SMILES CCCCCCCCCCCCC(=O)N[C@@H](CCC(=O)NCCOCCOCC(=O)NCCOCCOCC(=O)N[C@@H](CCC(N)=O)C(=O)N[C@@H](CCCNC(=N)N)C(=O)N1CCC[C@H]1C(=O)N(C)[C@@H](CCCNC(=N)N)C(=O)N[C@@H](CC(C)C)C(=O)N[C@@H](CO)C(=O)N[C@@H](Cc1c[nH]cn1)C(=O)N[C@@H](Cc1cccc2ccccc12)C(=O)NCC(=O)N1CCC[C@H]1C(=O)N[C@@H](CCCC)C(=O)N1CCC[C@H]1C(=O)N[C@@H](Cc1ccc(Cl)cc1)C(=O)O)C(=O)O) [Apelin polypeptide SEQ ID NO: 449] | 394 | 470

From patent US10941182 (Amgen, dated 2021)
